In the nanobody polyreactivity screen of Harvey et al. (2022):

Assay: yeast display, Sf9 membrane polyspecificity reagent, FACS + sequencing; frameworks hold sequencing errors
Method in brief: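 Galactose-induced (36–48 hours) yeast carrying a synthetic nanobody display library were exposed to 10% biotinylated, detergent-solubilized Sf9 membrane reagent at 4 °C for 1 hour. FACS followed streptavidin microbead enrichment, using low and high (top ~1%) gates for expression (anti-HA) and reagent binding (streptavidin). Colony PCR, MiSeq 2 × 250 sequencing and CDR-length filtering followed. Labels for polyreactivity reflect the gate of origin.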

| Sequence | polyreactivity (PSR sort gate) |
| --- | --- |
| QVQLVESAGGLVQAGGSLRLSCAASGFIFRYNTMGWYRQAPGKERELVATINRSGGSTYYADSVKGRFTISRDNAKNTVYLQMNSLKPEDTAVYYCAAVSLQPYYIAGATWDGDYWGQGTQVTVSS | high polyreactivity |
| QVQLVESAGGLVQAGGSLRLSCAASGFIFSRNAMGWYRQAPGKERELVAAISGTGGRTYYADSVKGRFTLSRDNAKNTVYLQMNSLKTEDTAVYYCAADKRIGGFGYWGQGTQVTVSS | high polyreactivity |
| QVQLVESAGGLVQAGGSLRLSCAASGFTFRSNAIGWYRQAPGKQRELVAAITSRGGSTYYADSVKGRFTISRDNAKNTVYLQMNSLKPVDTAVYYCAAEGRSRKFDYWGQGTQVTVSS | high polyreactivity |
| QVQLVESAGGLVQAGGSLRLSCAASGFTFYGYAMGAYSQAPGKERELVAAITSGGSTNYADAVKGRFTISRDNAKNTVYVQLNSLKPEDTAVYHCAAVWVANTARYSDTFGYWGQGTQVTVSS | high polyreactivity |
| QVQLVESAGGLVQAGGSLRLSCAASGITFNDNAMGGYRQAPGKERELVAAINSGNGTDYEDSVKGRFTISRDNAKNTVYLQMNSLKPEDTAVYYCATEGYVQGDLGYLYTRYAFYYWGQGTQVTVSS | low polyreactivity |
| QVQLVESAGGLVQAGGSLRLSCAASGLTQASYAMGWYRQAPGKERELVAAISRRSGRTYYADSVKGRFTISRDNAKNTVYLQMNSLKPVDTAVYYCNRGYTAQVYTEFDYWGQGTQVTVSS | low polyreactivity |
| QVQLVESAGGLVQAGGSLRLSCAASGLTYYFYPMGWYRQAPGKETELVAAINYDDGSTYYADSVKGRFTISRDNAKNTVYLQMNSLKPEDTAVYYCAADRDFRTPRLYYWGQGTQVTVSS | low polyreactivity |
| QVQLVESAGGLVQAGGSLRLSCAASGNIFSYYAMGWYRQAPGKERELVAAISRRGTNTYYADSVKGRFTISRDNAKNTVYLQMKSLKPEDTAVYYCARYGPYQSSYHYDYWGQGTQVTVSS | high polyreactivity |
| QVQLVESAGGLVQAGGSLRLSCAASGNTFATYAMGWYRQAPGKERELVAAITWTGGRTRYADSVKVRFTISRDNAKNTVYLPMNSLKPEDTAVYYCAAKRYDTTYDSWGQGTQVTVSS | high polyreactivity |
| QVQLVESAGGLVQAGGSLRLSCAASGRIFSAYAMRWYRQARGKERQLVAAITWSGANTDYADSVKGRFTISRDNAKNTVYLQMTSLKPEDTAVYYCNASFGRDSAYDYWGQGTQVTVSS | low polyreactivity |
| QVQLVESAGGLVQAGGSLRLSCAASGRIFSFNAMGWDRQAPGKERELVATIRTDGTTNYADSVKGRFTISRDNAKNTVYLQMNSLKPEDTAVYYCATDSGWSTYDYWGQGTQVTVSS | high polyreactivity |
| QVQLVESAGGLVQAGGSLRLSCAASGRTFKYYAMGWYRQAPGKERELVAAISRSGGSTYADSVKGRFTISRDNAKNTVYLQMNSLKPDETAVYYCAAYSGVGYLWFDYWGQGTQVTVSS | low polyreactivity |
| QVQLVESAGGLVQAGGSLRLSCAASGRTFVHYAIGWYRPAPAKERELVAAISWSGGSTYYADSVKGRFTISRDNAKNTGYLQMNSLKPEDTAVYYCNAGGFAPGRYGEFDYWGQGTQVTVSS | low polyreactivity |
| QVQLVESAGGLVQAGGSLRLSCAASGSIFGLYAMGWSRQAPGKDRELVAAITSAGSTYYADSVKGRFTISRDNAKNTVYLQMNTLKPEDTAVYYCAARGFYQFPSYYYWGKGTQVTVSS | high polyreactivity |
| QVQLVESAGGLVQAGGSLRLSCAASGSIFHYYAMGWYRQAPGKERELVAAINSSGGSRTYYADSVKGRFTISRDKAKNTVYLQMNSLKPEDTAVYYCAADYRVVWRAYDYWGQGTQVTVSS | low polyreactivity |
| QVQLVESAGGLVQAGGSLRLSCAASGSIFYRNVMAWYRQAPGQERELVAAITWSGGSTYYADSVKGRFTISRDNAKNTVYLQMNSLKPEDTAVYFCAAASKATYRGKVSGYYYWGQGTQVTVSS | high polyreactivity |
| QVQLVESAGGLVQAGGSLRLSCAASGSNDTNAMGWYRQEPWKERELVADITSGTPTYADSVKGRFTISRDNAKNTVFLQMNSLKPEDTAVYYCAADIPPWCGDYWGQGTQVTVSS | low polyreactivity |
| QVQLVESAGGLVQAGGSLRLSCAASGSSLGYYAMGWYRQAPGKERELVADIDNGTSTYYADSVKGRFTISRDNAKNTVYLQMNSLKQEDTAVYYCAADYYSRYLQSYYWGQGTQVTVSS | low polyreactivity |
| QVQLVESAGGLVQAGGSLRLSCAASGSTFGANAMGWYRQAPGKEREYVAAISRSGVRTYYADSVKGRFTISRDNAKNTVYLQMNSLKPEDTAVYYCAADGYWWTYTRYDYWGQGTQVTVSS | low polyreactivity |
| QVQLVESAGGLVQAGGSLRLSCAASGYTFKLYAMGWSRQAPGKERELVAAIRQRGGTTYYADSVKGRVTISRDNAKNTVYLQMNSLKPEDTAVYYCAVRFYLPNANGGYYYWGQGTQVTVSS | high polyreactivity |
| QVQLVESAGGLVQAGGSLRLSCAPSGRTFYGNAMGWYRQAPGTERELVAAISSRGGSTYYADSVKGRFTISRDNANNTVYLQMNSLKPEDTAVYYCNVANGLSQVYRYNYWGQGTQVTVSS | high polyreactivity |
| QVQLVESAGGLVQAGGSLRLSCASSGFTFKANAMGWYRQAPGKERELVAAISRRGSSTYYADSVKGRFTISRDNAKNTVYLQMNSLKPEDTAVYYCNTKPRAGRTKLGYWGQGTQVTVSS | high polyreactivity |

| Sequence | polyreactivity (PSR sort gate) |
| --- | --- |
| QVQLVESAGGLVQAGGSLRLSCPASGLTFGSYALGWYRQAPGKEREFVAAISWRGGSTYYADSVKGRFTISRDNAKNTVYLQMNSLKPEDTAVYYCAAPVTYGGSPYKYYYWGQGTQVTVSS | high polyreactivity |
| QVQLVESAGGLVQAGGSLRLSCPASGRIFSIYGMGWYRQAPGKERELVAVISGSVGITYYADSVKGRFTISRDNAKNTVYLQMNSLKPEDTAVYFCNAKVRRRKYDYWGQGTQVTVSS | high polyreactivity |
| QVQLVESAGGLVQAGGSLRLSCPASGRTFFPYAMGWYRQPPGQEREFVAAITNTDDSTYYADSVKGRFTISRDNAKNTVYLQMNSLKPEDTAVYYCNAGDTQIRFYYWGQGSQVTVSS | low polyreactivity |
| QVQLVESAGGLVQAGGSLRLSFAASGFTFAKYAMGWYRQAPGKERELVAGISRRGGSTYYADSVKGRFTISRDNAKNTVYLQMNSLKPEDTAVYYCNADLVRPGYYRYDYWGQGTQVTVSS | high polyreactivity |
| QVQLVESAGGLVQAGGSLRLTCAASGLTFRVFAMGWYRQAPGKERELVAAISSRGGSTYYADSVKGRFTISRDNAKYTVYLQMNSLKPEDTAVYDCYARGQGGYWGQGTQVTVSS | high polyreactivity |
| QVQLVESAGGLVQAGGSLRLTCAASGRTYFPYAMGLYRQAPGKERELVAAITWSATTTYYADSVKGRFTISRDNAKNTVYLQMISLKPEDTAVYYCNARGDYWGQGTQVTVSS | low polyreactivity |
| QVQLVESAGGLVQAGGSLSLSCAASGGTFSTNAMGWYRQAPGQERELVAAISLSGGRTYADSVKGRFTISLDNAKNTVYLQMNSLKPEDTAVYYCNADSAGITRARSELDYWGQGTQVTVSS | low polyreactivity |
| QVQLVESAGGLVQAGGSLSLSCAASGSTFASYAMGWYRQAPGKEREFVAAITRSGTSTYYADSVKGRFTISRDNAKNTVYLQMNSLKPEDTAVYYCNATRRTVGFGYWGQGTQVTVSS | high polyreactivity |
| QVQLVESAGGLVQAGRSHRLSFAASGSIFYHNAMGWYRQAPGKERELVAAISGRGGSTYYADSVKGRFTISRDNAKNTVYLQMNSLKPEDTAVYYCAADARYQNGGLYYWGQGTQVTVSS | high polyreactivity |
| QVQLVESAGGLVQAGRSLRLSCAASGRNFLGNDMGWYRQAPGKERELVAAISYGDGSTYYADSVKGRFTISRDNAKNTVYLQMNSLKPEDTAVYYCAAERYTIPPIYDYWGQGTQVTVSS | low polyreactivity |
| QVQLVESAGGLVQAGVSLRISCAASGSTIRHYAMGWYRQAPRKERELVAAISSGARTYYADSEKGRFTISRDNAKNTVYLQMNSLKPEDTAVYYRAARYNGYANPYYYWGQGTQVTVSS | high polyreactivity |
| QVQLVESAGGLVQAGVSLRLSCAASGFTSSRNAMGWYRQAPGKERELVATISSGGDTYYADSVKGRFTISRDNAKNTVYLQMNTLKPEDTAVYYCNKDPLYAWGYDYWGQGTQVTVSS | low polyreactivity |
| QVQLVESAGGLVQARGSLRLSCAASGINFDWYTMGWYRKAPGKERELVAAISWRGGRTYYADSVKGRFTISRDNAKNTVYLQMNSLKPEDTAVYYCAAEAPVQPFYVFNTGIYELDYWGQGTQVTVSS | low polyreactivity |
| QVQLVESAGGLVQEGGSLRIRCAASGRIYQLYTMGGYRQAPGKERELDAAITTGTSTSYAYSVKGRFTISRDNAKNTVYLLMYSLKPVDTAFYFCNKGSVSYYSVFVPYESDYGGQGTQVTVSS | low polyreactivity |
| QVQLVESAGGLVQEGGSLRLICAASGSIFEPYAMGWYRQAPGKERELVAAIRWSGGSTYYADSVKGRFTISRDNAKNTVYLQMNRLIPEDTAVYYCAKYFPAGYYYWGQGTQVTVSS | low polyreactivity |
| QVQLVESAGRLVQEGGSLRLRSAASGSIFKYNTMGWYRQAAGKERELVAGISYGGRTYYADSVKGRFTISRDNAKNTVYLHMNSLKPEYTAVYYCAARWSYFKTTHRNNYWGQGTQVTVSS | high polyreactivity |
| QVQLVESARGLVQAGGSLRLSCAASGYTIRANAMGWYRQAPGKEREFVAAISRSGGSTYYADSVKGRFTISRDNAKNTVYLQMNCLKPEDTAVYYCNNLYPYYATHTTRGLDYWGQGTQVTVSS | high polyreactivity |
| QVQLVESAVGLVQAGGSHRLSCAASAGTFYFYAMGWYRQAPGKERELVATITRGGSTYYADSVKGRFTISRDNAKNTVYLQMNSLNPEDTAVYYCAARQYSRRRSPVSTWYYYWGQGTQVTVSS | high polyreactivity |
| QVQLVESCGALVQAGGSLRLICAGSGSIFHVNAMGWSRPAHGKESELVAGISDGGSTYYADSVKGRFTISRYYAKNTVYFQMNSLKPEDSGVYYWATDYPSRWHVHRGFQGKYDYWGQGTQVTLSS | low polyreactivity |
| QVQLVESCGCLVQAGGSLRLSCAASGRTFFHYDMGWYRQAPGKDRELEAGISSGGRTKYADSVKGRFTISRDNAKNTVYLQMNSLNPEDTAAYYCAASYIVWLTRGAPRKRFDYWGQGSQVTVSS | high polyreactivity |
| QVQLVESCGGIVQAGGSLRLRCAASGFIFEYYAMVWYRQAPGKERELVAAINWGGGRTRYADSVKGRFTISPYNAKNTVYLQMNSLKPEDTAVYYCAARYGYRYDSWGQGTQVTVSS | high polyreactivity |
